The source of these data is patent US20120171209A1 (Ablynx, published 2012).

Broadly, the koff is the first-order rate constant of dissociation.

Where a chain is given by its changes, count along the chain named.

The chains are these.
B1: IL6RPMP120G6 (VHH)
VHH: EVQLVESGGDLVQTGGSLRLSCAASGITVSDRAMGWYRQAPGKQREMVAGVSRGGMTSYADSVKGRLTISRDNAKNSVYLQMNSLNPEDTAVYYCSAYYRYGSSVPQYWGQGTQVTVSS
B2: IL6RPMP104B8 (VHH)
VHH: EVQLVESGGGLVQAGGSLRLSCAASGFAFDDYAIGWFRQAPGKEREGVSSISSSNGNTYYADSVRGRFTISSDNAKNTVYLQMNSLKPEDTGVYYCAAIWGIFFNEKMPVGAYDYWGQGTQVTVSS
notes: family 3; also called PMP104B08; IL6R104B8
B3: IL6RPMP108E1 (VHH)
VHH: EVQLVESGGGLVQAGGSLRLSCAASGFTFDDYDIGWFRQAPGKEREGVSGISSSDGNTYYADSVKGRFTISSDNAKNTVYLQMNSLKPEDTAVYYCAAEPPDSSWYLDGSPEFFKYWGQGTQVTVSS
notes: family 20; also called PMP108E01
B4: IL6RPMP107A1 (VHH)
VHH: EVQLVESGGGLVQAGGSLNLSCNASGDIGSINAMGWYRQAPGQQREWVAVITDTDSTIYPDSVKGRFAISRDGAKNTVHLRMSSLKPEDTAVYYCNAYQAGWGDYWGQGTQVTVSS
notes: also called IL6R107A1
B5: IL6RPMP100G11 (VHH)
VHH: EVQLVESGGGLVQAGGSLRLSCAASGRGFSPYTMGWFRQAPGKERVFVAGISWSTGIAHYTDSVKGRFTISRDNAKNTGSLQMNSLKPEDTAVYYCAVVQTTKGNYDYWGQGTQVTVSS
notes: family 4; also called IL6R100G11
B6: IL6RPMP107B4 (VHH)
VHH: EVQLVESGGGLVQAGGSLRLSCVASGLRLNMHRMGWFRQAPGKEREFVARIFTDDGDSYYADSVQGRFTISGDNAKNTVYLQMNSLKPEDTGVYFCAAGYMSGAESPIGYDNWGQGTQVTVSS
notes: family 17; periplasmic extract; also called PMP107B04
B7: IL6RPMP105B8 (VHH)
VHH: B2 VHH with Q13R
notes: family 3; periplasmic extract
B8: IL6RPMP105H10 (VHH)
VHH: B2 VHH with L4M, T91A
notes: family 3; periplasmic extract
B9: IL6RPMP101A5 (VHH)
VHH: EVQLVESGGGLVQAGGSLRLSCTASGRTFSDYDMGWFRQAPGKERECVAIIDTNGDNTLIVGSVKGRFAISSDNAKNTVYLQMNSLLPEDTAVYTCAAGVWSSLRHTAANYWGQGTQVTVSS
notes: family 5; periplasmic extract
B10: IL6RPMP108D1 (VHH)
VHH: B9 VHH with I50V, I60T, S72R, V100A, H106S, Q117K
B11: IL6RPMP108C10 (VHH)
VHH: B9 VHH with A14P, I50V, I60T, S72R, V100A, H106S
B12: IL6RPMP108D10 (VHH)
VHH: B9 VHH with L11S, I50V, I60T, S72R, V100A, H106S
B13: IL6RPMP108F7 (VHH)
VHH: B9 VHH with I50V, I60T, S72R, V100A, H106S
B14: IL6RPMP104B9 (VHH)
VHH: B9 VHH
notes: family 5; periplasmic extract
B15: IL6RPMP101B6 (VHH)
VHH: EVQLVESGGGLVQAGGSLRLSCAASGSDFSIKAMGWYRQAPGKQRELVARITSGGSTVYADSVKGRFTISRDNAKNTVYLQMNSLKPEDATVYYCNAIVTYSDYDLGNDYWGQGTQVTVSS
notes: family 7; periplasmic extract
B16: IL6RPMP100D11 (VHH)
VHH: EVQLVESGGGLVQAGDSLRLSCLASGRSFKDDAMGWFRQAPGKEREFVSGIDWRGNIVDAESVKGRFTISRENAKNTLYLQMNHLKPEDTAVYYCAASSVFSDLRYRKNPKYWGQGTQVTVSS
B17: IL6RPMP103A2 (VHH)
VHH: EVQLVESGGGLVQPGGSLRLSCAASGSIFSINTMGWYRQVPGKQRELVATVRSGSITNYADSVQDQFTITRDIDENTVYLQMNSLKPEDTAVYYCLTRASVPGRGYQDYWGQGTQVTVSS
B18: IL6RPMP103A4 (VHH)
VHH: B17 VHH with Q66R
B19: IL6RPMP103B2 (VHH)
VHH: EVQLVESGGGLVQPGGSLRLSCAASGSTFSINMMAWYCQAPGKQRELVASISSGGGINYADSVKGRFTISRDYAENSVDLQMNSLKPEDTAVYYCNARGTYLNGDHYSTNYNSWGQGTQVTVSS
B20: IL6RPMP103A5 (VHH)
VHH: EVQLVESGGGLVQAGDSLRLSCVASGLPFSTLHMGWFRQAPGKEHESVSAISSDGGSEYYAGSVKGRFTISRDNAKNTVYLQMNSLKPEDTAVYYCAADPRRIGANIKYSDYWGQGTQVTVSS
B21: IL6RPMP103C3 (VHH)
VHH: EVQLVESGGGLVQPGGSMRLSCAATGAIFSISTMGWYRQAPGAQREFVAGVGLDGTPNYADSVKGRFTISRDNTKNTVSLQMENLKPEDTGVYYCNIDEGMDYDGNFYDRWGQGTQVTVSS
notes: family 14; periplasmic extract
B22: IL6RPMP104E7 (VHH)
VHH: EVQLVESGGGLVQAGGSLRLSCAAGGSIFSINAMGWYRQAPGKQRELVASITSGGSTTYADSVKGRFTISRDNAKDTVYLQMNSLKPEDTAVYYCNAHIRFPFPNDYWGQGTQVTVSS
notes: family 18; periplasmic extract; also called PMP104E07
B23: IL6RPMP107E4 (VHH)
VHH: EVQLVESGGGLVQAGGSLRLSCAASGSIDRINAMGWYRQAPGKQRDFLAVITDGDKTLYADSVKGRFTISNDNAKNTVYLQMNSLKPEDTAVYYCNAYQAGWGDYWGQGTQVTVSS
notes: periplasmic extract
B24: IL6RPMP108E9 (VHH)
VHH: EVQLVESGGGLVQAGGSLRLSCAFSRRSFGNFPMGWFRQRPGEEREYVAVISWNNNYIHYRDSVKGRFTASRDTSENRMYLQMNGLKPEDTAVYYCAARTKDNTLFTPAEEYDYWGQGTQVTVSS
notes: family 15; periplasmic extract
B25: IL6RPMP103F2 (VHH)
VHH: EVQLVESGGGLVQAGGSLRLSCVASGHTSDTYIMAWFRQAPGKEREFVASILWDGSITYYADSVKDRFTISRDISRKTLYLQMNSLRPEDTATYTCARGIYFSRRYVDPGIYGTWGQGTQVTVSS
notes: family 26; periplasmic extract
B26: IL6RPMP106D6 (VHH)
VHH: EVQLVESGGGLVQAGGSLRLSCAASGFTFDDYAIGWFRQAPGKEREGVSCMISSDGSTYYADSVKGRFTISSDNAKNTVYLQMDSLKPEDTAVYYCAADLSLYGCYVGDRDLYDYDYWGQGTQVTVSS
notes: family 22; periplasmic extract; also called PMP106D06
B27: IL6RPMP106B2 (VHH)
VHH: EVQLVESGGGLVQAGGSLRLSCAASGSIFRINAMGWYRQAPGKQRELVAAAISGGSTNYADFVKGRFTISRDNAKNTVYLQMNSLKPEDTAVYYCNALVVSHNYSDYVPFPDDYWGQGTQVTVSS
notes: family 6; periplasmic extract
B28: IL6RPMP105D3 (VHH)
VHH: B27 VHH with V5E
notes: family 6; periplasmic extract
B29: IL6RPMP105C2 (VHH)
VHH: B27 VHH with K43E
notes: family 6; periplasmic extract
B30: IL6RPMP106F7 (VHH)
VHH: B27 VHH with G8E
notes: family 6; periplasmic extract
B31: IL6RPMP101G11 (VHH)
VHH: EVQLVESGGGLVQPGGSLRLSCAASASGFTLDYYAIGWFRQAPGKEREGVSCISSTDGSTYYADSVKGRFTISRDNAKNTVYLQMNSLNPEDTGVYTCAAVLTTAQAMGVPTRSYEYDYWGQGTQVTVSS
notes: family 2; periplasmic extract
B32: IL6RPMP108C9 (VHH)
VHH: EVQLVESGGGLVQAGGSLRLSCAASGRTYAMAWFRQAPGKEREFVAAISIVTDYADSVKGRFNISRDNRENTVYLQMNSLKPEDTAVYYCAANTYYSGAYFPRGHEWYEYWGQGTQVTVSS
notes: family 16; periplasmic extract

For the first assay, the target named is IL-6R on the surface of TF-1 cells (UniProt P08887). Put plainly: cell-based or functional assay.
Sequence of IL-6R on the surface of TF-1 cells (P08887 20-468 limits assumed): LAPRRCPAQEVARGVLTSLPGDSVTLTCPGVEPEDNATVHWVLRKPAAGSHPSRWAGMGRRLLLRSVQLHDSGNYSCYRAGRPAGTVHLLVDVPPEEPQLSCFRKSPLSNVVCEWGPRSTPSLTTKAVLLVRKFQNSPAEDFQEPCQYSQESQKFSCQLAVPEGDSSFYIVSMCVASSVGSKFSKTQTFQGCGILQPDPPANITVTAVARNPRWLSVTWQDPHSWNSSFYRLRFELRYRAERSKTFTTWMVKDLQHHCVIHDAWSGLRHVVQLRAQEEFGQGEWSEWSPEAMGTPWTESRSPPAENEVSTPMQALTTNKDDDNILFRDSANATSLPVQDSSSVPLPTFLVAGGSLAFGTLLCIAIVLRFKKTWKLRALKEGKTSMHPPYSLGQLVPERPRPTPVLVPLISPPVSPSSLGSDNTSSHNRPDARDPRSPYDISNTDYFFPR
Consider B1, for which the IC50, IL-6-dependent proliferation of TF-1 cells came to 10.2 nM.

Regarding B2, the IC50, IL-6-dependent proliferation of TF-1 cells is 245 nM. Still for that read-out and setting: as for B3, the figure is 0.149 nM. On the same count and under the same terms, then B4, with 4.05 nM; and B5, with 116 nM.

For the next assay, the target named is cynomolgus IL-6R used in Biacore (cynomolgus monkey). Put plainly: Biacore, periplasmic extract. A general note: SPR reads the build-up and loss of mass on a sensor chip optically.
In the case of B6, the koff is 0.01 s⁻¹. The same measure, in the same setting: as for B2, the figure is 0.01 s⁻¹; as for B7, 0.01 s⁻¹; as for B8, 0.01 s⁻¹. Same read-out and setting: as for B3, the figure is 0.001 s⁻¹; as for B9, 0.00045 s⁻¹. Same read-out and setting: as for B10, the figure is 0.00079 s⁻¹; as for B11, 0.00071 s⁻¹; as for B12, 0.0009 s⁻¹. In the case of B13, the dissociation rate constant (koff) was determined as 0.00074 s⁻¹. The same measure, in the same setting: as for B14, the figure is 0.00074 s⁻¹; as for B15, 0.001 s⁻¹. The same measure, in the same setting: as for B4, the figure is 0.01 s⁻¹; as for B16, 0.00074 s⁻¹. Still for that read-out and setting: then B17, with 0.001 s⁻¹; and B18, with 0.00045 s⁻¹. B19 yielded a koff of 0.00045 s⁻¹. Same read-out and setting: then B5, with 0.00045 s⁻¹; and B20, with 0.00074 s⁻¹.

The target in the next assay is T1, human soluble IL-6R, recombinant (human, UniProt P08887 20-358).
T1 construct: also called human IL6-R; bio-IL-6R
T1 sequence (looked up): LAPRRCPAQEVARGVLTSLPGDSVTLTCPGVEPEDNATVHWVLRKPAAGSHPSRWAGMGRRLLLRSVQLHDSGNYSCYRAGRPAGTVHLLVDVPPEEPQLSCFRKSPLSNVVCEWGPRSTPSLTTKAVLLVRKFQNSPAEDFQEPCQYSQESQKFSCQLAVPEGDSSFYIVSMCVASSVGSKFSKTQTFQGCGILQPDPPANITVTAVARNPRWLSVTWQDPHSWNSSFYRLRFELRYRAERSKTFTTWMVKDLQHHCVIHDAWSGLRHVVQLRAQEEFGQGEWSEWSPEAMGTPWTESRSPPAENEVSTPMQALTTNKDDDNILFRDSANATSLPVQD
Put plainly: Biacore, periplasmic extract. The procedure:
Periplasmic extracts of representative family clones were also analyzed on Biacore. Dissociation curves were used to calculate koff rates. koff rates are depicted in Table C-6.
On to B6, for which the koff is 0.01 s⁻¹.

As to B21, the binding result was “no binding”. Turning to B22, the koff came to 0.001 s⁻¹.

As to B2, the koff turned out to be 0.01 s⁻¹. In the case of B7, the dissociation rate constant (koff) was 0.01 s⁻¹.

Consider B8, for which the koff amounted to 0.01 s⁻¹. The same measure, in the same setting: then B3, with 0.0001 s⁻¹; and B23, with 0.01 s⁻¹; and B9, with 0.00027 s⁻¹. The same measure, in the same setting: then B14, with 0.00023 s⁻¹. On to B24, for which the binding result is reported as “no binding”.

Take B25: the binding result is listed as “no binding”. Turning to B26, the off-rate constant (koff) came to 0.001 s⁻¹. The same measure, in the same setting: as for B15, the figure is 0.00058 s⁻¹. Same read-out and setting: then B27, with 0.01 s⁻¹; and B28, with 0.01 s⁻¹; and B29, with 0.01 s⁻¹. The same measure, in the same setting: as for B30, the figure is 0.01 s⁻¹; as for B31, 0.00042 s⁻¹.

On to B4, for which the koff turned out to be 0.00075 s⁻¹. Regarding B32, the binding result is recorded as “no binding”. For B5, the koff came to 0.00027 s⁻¹.
